Test results published in US20250057840.

Key:
[1] = molecular target: myc-tagged MAGI1 deletion of WW domain (murine, pCDNA3.1) (UniProt Q6RHR9)
[2] = molecular target: myc-tagged MAGI1 deletion of GUK-WW domains (murine, pCDNA3.1) (UniProt Q6RHR9)
[3] = molecular target: myc-tagged MAGI1 deletion of GUK domain (murine, pCDNA3.1) (UniProt Q6RHR9)
[4] = molecular target: GFP-tagged MAGI1 WT (human MAGI1c, pCMV6-AC-GFP-MAGI1c WT, Origene #RG212712) (UniProt Q96QZ7)
[5] = molecular target: GFP-MAGI1 Y373F (human MAGI1c-Y373F-GFP) (UniProt Q96QZ7)
GFP-MAGI1 Y373F (human MAGI1c-Y373F-GFP), sequence (Q96QZ7 other isoform, or with tags, fused parts or gaps Y373F Y373F): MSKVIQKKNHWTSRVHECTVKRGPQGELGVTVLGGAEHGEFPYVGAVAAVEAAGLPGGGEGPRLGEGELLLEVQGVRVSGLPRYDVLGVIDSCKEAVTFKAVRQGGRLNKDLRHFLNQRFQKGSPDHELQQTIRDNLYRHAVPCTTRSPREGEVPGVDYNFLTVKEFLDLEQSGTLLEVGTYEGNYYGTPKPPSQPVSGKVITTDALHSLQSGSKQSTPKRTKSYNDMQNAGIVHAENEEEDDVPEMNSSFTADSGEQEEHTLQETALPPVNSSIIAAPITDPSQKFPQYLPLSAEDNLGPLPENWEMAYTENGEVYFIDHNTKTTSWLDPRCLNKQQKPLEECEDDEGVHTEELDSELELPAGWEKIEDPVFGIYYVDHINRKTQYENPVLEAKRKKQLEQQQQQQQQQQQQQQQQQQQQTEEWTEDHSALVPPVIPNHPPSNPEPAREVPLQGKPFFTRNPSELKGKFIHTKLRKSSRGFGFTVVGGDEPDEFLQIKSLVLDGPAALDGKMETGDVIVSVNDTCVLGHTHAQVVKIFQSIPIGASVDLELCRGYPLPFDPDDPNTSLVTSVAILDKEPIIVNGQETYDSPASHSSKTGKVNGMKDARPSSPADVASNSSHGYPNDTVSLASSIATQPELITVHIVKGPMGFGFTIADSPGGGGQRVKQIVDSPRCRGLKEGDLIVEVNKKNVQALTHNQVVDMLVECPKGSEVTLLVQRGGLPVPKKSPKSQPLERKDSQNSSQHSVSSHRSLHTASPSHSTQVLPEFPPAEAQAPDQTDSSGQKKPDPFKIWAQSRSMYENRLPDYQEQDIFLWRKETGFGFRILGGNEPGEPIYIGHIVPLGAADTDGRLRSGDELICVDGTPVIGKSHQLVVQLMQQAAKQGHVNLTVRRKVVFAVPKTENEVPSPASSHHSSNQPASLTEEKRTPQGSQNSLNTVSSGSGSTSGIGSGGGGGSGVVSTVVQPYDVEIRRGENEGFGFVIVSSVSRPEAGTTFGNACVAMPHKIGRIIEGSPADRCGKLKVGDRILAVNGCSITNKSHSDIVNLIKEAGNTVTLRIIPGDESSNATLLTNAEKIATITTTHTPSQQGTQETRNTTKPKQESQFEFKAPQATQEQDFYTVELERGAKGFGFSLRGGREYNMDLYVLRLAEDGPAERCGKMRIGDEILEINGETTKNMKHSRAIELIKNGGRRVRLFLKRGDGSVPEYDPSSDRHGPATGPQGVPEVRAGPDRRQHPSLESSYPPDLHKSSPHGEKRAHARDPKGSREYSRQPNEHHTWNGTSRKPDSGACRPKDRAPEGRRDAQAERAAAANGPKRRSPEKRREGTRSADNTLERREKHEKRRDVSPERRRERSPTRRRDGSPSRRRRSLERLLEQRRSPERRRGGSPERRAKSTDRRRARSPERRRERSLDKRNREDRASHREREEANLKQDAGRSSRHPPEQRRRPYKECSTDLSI

myc-tagged MAGI1 deletion of WW domain (murine, pCDNA3.1), sequence (Q6RHR9 other isoform, or with tags, fused parts or gaps): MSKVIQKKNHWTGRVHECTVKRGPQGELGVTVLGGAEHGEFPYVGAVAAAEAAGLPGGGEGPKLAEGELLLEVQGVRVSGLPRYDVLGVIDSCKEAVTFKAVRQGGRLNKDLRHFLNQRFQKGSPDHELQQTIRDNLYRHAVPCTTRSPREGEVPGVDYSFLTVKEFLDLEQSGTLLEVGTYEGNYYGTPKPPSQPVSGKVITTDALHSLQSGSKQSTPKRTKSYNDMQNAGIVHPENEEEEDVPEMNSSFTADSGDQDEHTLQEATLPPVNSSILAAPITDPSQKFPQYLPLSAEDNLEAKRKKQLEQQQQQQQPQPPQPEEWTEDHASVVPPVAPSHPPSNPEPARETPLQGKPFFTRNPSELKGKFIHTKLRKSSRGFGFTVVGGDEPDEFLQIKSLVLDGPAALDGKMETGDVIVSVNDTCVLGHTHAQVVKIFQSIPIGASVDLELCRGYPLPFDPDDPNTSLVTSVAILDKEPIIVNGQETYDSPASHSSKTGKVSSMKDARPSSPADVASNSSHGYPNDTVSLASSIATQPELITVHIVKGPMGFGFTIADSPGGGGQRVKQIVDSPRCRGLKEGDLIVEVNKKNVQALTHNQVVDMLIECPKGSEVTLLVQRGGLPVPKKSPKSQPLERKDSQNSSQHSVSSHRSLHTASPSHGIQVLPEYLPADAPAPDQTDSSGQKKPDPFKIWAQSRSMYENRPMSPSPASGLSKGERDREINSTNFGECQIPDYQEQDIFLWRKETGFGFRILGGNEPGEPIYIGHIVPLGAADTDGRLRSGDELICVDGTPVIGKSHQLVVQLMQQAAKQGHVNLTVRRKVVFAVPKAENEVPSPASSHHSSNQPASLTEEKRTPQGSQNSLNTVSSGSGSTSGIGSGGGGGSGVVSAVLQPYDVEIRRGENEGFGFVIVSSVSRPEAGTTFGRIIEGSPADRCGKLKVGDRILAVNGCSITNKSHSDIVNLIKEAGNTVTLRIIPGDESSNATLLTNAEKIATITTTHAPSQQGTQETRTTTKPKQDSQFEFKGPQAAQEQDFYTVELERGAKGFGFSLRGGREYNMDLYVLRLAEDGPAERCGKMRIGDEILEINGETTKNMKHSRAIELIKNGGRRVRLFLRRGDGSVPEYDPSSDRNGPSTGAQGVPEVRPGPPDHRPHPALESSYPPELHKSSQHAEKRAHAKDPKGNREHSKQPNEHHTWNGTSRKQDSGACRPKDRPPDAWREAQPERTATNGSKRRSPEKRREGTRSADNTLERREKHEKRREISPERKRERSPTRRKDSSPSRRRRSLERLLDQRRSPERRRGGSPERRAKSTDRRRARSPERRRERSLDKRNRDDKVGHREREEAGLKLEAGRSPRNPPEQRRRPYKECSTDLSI
GFP-tagged MAGI1 WT (human MAGI1c, pCMV6-AC-GFP-MAGI1c WT, Origene #RG212712), sequence (Q96QZ7 other isoform, or with tags, fused parts or gaps): as the sequence (Q96QZ7 other isoform, or with tags, fused parts or gaps Y373F Y373F) above, with F373Y counted along it
myc-tagged MAGI1 deletion of GUK domain (murine, pCDNA3.1), sequence (Q6RHR9 other isoform, or with tags, fused parts or gaps): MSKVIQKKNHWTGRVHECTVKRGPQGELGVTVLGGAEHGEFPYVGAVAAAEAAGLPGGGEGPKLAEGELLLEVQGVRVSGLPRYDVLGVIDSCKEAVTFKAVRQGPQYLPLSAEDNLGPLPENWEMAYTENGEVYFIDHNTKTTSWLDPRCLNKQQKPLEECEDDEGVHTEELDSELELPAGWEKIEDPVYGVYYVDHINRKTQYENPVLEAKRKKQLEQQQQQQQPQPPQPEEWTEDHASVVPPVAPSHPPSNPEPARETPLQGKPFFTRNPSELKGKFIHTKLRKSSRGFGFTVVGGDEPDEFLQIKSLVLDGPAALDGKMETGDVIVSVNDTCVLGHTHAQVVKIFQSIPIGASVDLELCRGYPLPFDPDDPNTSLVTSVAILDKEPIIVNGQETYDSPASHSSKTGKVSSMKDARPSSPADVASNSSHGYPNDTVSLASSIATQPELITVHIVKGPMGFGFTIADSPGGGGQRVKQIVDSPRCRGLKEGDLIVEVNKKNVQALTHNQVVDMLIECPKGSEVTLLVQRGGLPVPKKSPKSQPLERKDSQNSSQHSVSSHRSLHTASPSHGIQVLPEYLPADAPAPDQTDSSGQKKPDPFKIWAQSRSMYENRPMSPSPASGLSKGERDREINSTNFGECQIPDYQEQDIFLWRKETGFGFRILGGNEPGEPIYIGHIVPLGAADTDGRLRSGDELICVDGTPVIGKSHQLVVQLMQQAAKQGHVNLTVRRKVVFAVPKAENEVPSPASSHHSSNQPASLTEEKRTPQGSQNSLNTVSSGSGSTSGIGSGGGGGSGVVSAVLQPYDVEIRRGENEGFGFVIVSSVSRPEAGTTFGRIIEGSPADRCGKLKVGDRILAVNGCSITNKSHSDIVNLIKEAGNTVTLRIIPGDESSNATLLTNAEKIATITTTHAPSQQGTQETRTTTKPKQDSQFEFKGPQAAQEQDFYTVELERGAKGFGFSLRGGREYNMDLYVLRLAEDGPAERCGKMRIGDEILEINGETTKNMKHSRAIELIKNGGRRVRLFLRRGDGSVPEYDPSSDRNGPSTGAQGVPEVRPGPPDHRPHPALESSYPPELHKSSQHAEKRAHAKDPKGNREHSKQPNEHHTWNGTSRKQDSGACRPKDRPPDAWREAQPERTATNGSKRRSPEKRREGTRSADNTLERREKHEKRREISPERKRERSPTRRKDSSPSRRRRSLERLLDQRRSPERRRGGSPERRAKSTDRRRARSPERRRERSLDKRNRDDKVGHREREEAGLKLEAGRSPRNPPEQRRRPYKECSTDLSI

proto-oncogene tyrosine-protein kinase Src (SRC), wild type, expressed from pCMV SRC WT in 293T cells
Y373 phosphorylation (western blot with pMAGI1 Y373 antisera, 293T co-expression) [1]: Y373 phosphorylation was abolished when WW domain was absent but not GUK
Y373 phosphorylation (western blot with pMAGI1 Y373 antisera, 293T co-expression) [2]: Y373 phosphorylation was abolished when WW domain was absent but not GUK
Y373 phosphorylation (western blot with pMAGI1 Y373 antisera, 293T co-expression) [3]: Y373 phosphorylation was abolished when WW domain was absent but not GUK
phosphorylation of MAGI1 at Y373 (western blot with rabbit antisera against pMAGI1 Y373, 293T co-expression) [4]: co-expression of SRC and WT MAGI1 but not Y373F mutant resulted in strong phosphorylation of MAGI1 at Y373
phosphorylation of MAGI1 at Y373 (western blot with rabbit antisera against pMAGI1 Y373, 293T co-expression) [5]: co-expression of SRC and WT MAGI1 but not Y373F mutant resulted in strong phosphorylation of MAGI1 at Y373
